The labels stand for the following.
B1: EBOV VP35 1–168 (domain or fragment)
chain: MTTRTKGRGHTAATTQNDRMPGPELSGWISEQLMTGRIPVSDIFCDIENNPGLCYASQMQQTKPNPKTRNSQTQTDPICNHSFEEVVQTLASLATVVQQQTIASESLEQRITSLENGLKPVYDMAKTISSLNRVCAEMVAKYDLLVMTTGRATATAAATEAYWAEHGQ
B2: EBOV NP residues 25–457 ([change]) (domain or fragment)
chain: LTAGLSVQQGIVRQRVIPVYQVNNLEEICQLIIQAFEAGVDFQESADSFLLMLCLHHAYQGDYKLFLESGAVKYLEGHGFRFEVKKRDGVKRLEELLPAVSSGKNIKRTLAAMPEEETTEANAGQFLSFASLFLPKLVVGEKACLEKVQRQIQVHAEQGLIQYPTAWQSVGHMMVIFRLMRTNFLIKFLLIHQGMHMVAGHDANDAVISNSVAQARFSGLLIVKTVLDHILQKTERGVRLHPLARTAKVKNEVNSFKAALSSLAKHGEYAPFARLLNLSGVNNLEHGLFPQLSAIALGVATAHGSTLAGVNVGEQYQQLREAATEAEKQLQQYAESRELDHLGLDDQEKKILMNFHQKKNEISFQQTNAMVTLRKERLAKLTEAITAASLPKTSGHYDDDDDIPFPGPINDDDNPGHQDDDPTDSQDTTIPDV

Data set [1] has as its target B2. Briefly: ITC.
The data set “SEC” deals with the molecule itself. Briefly: SEC. For orientation: SEC sorts molecules by how far they enter the pores of the column.

In the case of MTTRTKGRGHTAATTQNDRMPGPELSGWISEQLMTGRIPVSDIFC [EBOV VP35 peptide 1–45], the “fold reduction in binding affinity relative to NPBP” value in data set [1] was 1.5 fold. Consider B1, for which the binding result in data set [1] is on record as “binds”. Regarding GWISEQLMTGRIPVSDIFCDIE [EBOV VP35 peptide 27–48], in data set [1], the “fold reduction in binding affinity relative to NPBP” value came to 6.5 fold. For the molecule B2, the binding result in “SEC” is reported as “binds”.
